According to patent publication US20100202967A1 (BRACCO IMAGING, published 2010):
Bridge positions count the residues as written; N and C are the ends. Square brackets hold non-standard residues; d marks the D form. * marks the point of attachment. αGalNAc = CC(=O)N[C@@H]1[C@@H](O)[C@@H](O)[C@@H](CO)O[C@@H]1*; Hyp = O=C(O)[C@@H]1C[C@@H](O)CN1; Cha = N[C@@H](CC1CCCCC1)C(=O)O; CF5 = 5-carboxyfluorescein; AEEA = NCCOCCOCC(=O)O

T1: fibrin
T1 chain 1: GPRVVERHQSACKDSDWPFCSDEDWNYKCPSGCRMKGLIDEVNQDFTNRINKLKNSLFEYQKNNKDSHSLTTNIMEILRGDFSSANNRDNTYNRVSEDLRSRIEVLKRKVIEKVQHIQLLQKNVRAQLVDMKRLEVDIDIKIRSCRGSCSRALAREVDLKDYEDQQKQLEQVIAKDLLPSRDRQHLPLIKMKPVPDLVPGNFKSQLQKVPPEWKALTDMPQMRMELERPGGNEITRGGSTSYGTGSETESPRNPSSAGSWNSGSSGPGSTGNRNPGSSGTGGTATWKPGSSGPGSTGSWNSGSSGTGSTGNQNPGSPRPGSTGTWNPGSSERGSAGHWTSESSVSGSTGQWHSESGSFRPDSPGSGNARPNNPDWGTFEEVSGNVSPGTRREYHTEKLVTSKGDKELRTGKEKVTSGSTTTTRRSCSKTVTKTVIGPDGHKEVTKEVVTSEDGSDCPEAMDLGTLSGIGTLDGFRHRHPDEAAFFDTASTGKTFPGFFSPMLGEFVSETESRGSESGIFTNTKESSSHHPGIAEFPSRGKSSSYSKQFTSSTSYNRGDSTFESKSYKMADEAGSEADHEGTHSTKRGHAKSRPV
T1 chain 2: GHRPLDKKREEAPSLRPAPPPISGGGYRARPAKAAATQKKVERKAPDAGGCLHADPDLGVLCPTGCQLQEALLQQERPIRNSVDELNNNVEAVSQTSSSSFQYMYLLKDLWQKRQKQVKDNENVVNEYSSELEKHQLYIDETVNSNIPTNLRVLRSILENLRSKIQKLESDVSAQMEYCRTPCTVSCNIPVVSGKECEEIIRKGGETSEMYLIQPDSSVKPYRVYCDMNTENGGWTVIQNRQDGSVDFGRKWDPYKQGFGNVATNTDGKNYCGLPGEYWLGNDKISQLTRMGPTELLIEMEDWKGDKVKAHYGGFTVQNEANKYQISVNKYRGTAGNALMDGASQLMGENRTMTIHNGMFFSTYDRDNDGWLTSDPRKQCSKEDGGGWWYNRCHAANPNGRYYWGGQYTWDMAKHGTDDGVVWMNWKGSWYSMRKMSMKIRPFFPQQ
T1 chain 3: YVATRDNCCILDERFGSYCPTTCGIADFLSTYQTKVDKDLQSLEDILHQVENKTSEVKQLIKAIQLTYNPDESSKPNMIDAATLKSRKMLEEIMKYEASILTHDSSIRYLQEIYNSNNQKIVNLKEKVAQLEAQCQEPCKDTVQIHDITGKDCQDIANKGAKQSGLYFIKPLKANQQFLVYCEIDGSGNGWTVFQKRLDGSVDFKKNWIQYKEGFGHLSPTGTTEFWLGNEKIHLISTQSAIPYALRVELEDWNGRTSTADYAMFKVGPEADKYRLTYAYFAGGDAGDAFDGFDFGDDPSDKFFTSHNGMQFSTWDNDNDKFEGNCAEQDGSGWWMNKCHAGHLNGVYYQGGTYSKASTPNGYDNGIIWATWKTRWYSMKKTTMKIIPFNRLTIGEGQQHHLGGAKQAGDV

B1: Ac-RRGGWQPC*PWESWTFC*WDPGGGK-NH2 (peptide)
peptide: Ac-RRGGWQPCPWESWTFCWDPGGGK-NH2
modifications: disulfide 8-16
SMILES: CC(=O)N[C@@H](CCCNC(=N)N)C(=O)N[C@@H](CCCNC(=N)N)C(=O)NCC(=O)NCC(=O)N[C@@H](Cc1c[nH]c2ccccc12)C(=O)N[C@@H](CCC(N)=O)C(=O)N1CCC[C@H]1C(=O)N[C@H]1CSSC[C@@H](C(=O)N[C@@H](Cc2c[nH]c3ccccc23)C(=O)N[C@@H](CC(=O)O)C(=O)N2CCC[C@H]2C(=O)NCC(=O)NCC(=O)NCC(=O)N[C@@H](CCCCN)C(N)=O)NC(=O)[C@H](Cc2ccccc2)NC(=O)[C@H]([C@@H](C)O)NC(=O)[C@H](Cc2c[nH]c3ccccc23)NC(=O)[C@H](CO)NC(=O)[C@H](CCC(=O)O)NC(=O)[C@H](Cc2c[nH]c3ccccc23)NC(=O)[C@@H]2CCCN2C1=O
B2: Ac-WQPC*PAESWTFC*WDPGGGK-NH2 (peptide)
peptide: Ac-WQPCPAESWTFCWDPGGGK-NH2
modifications: disulfide 4-12
SMILES: CC(=O)N[C@@H](Cc1c[nH]c2ccccc12)C(=O)N[C@@H](CCC(N)=O)C(=O)N1CCC[C@H]1C(=O)N[C@H]1CSSC[C@@H](C(=O)N[C@@H](Cc2c[nH]c3ccccc23)C(=O)N[C@@H](CC(=O)O)C(=O)N2CCC[C@H]2C(=O)NCC(=O)NCC(=O)NCC(=O)N[C@@H](CCCCN)C(N)=O)NC(=O)[C@H](Cc2ccccc2)NC(=O)[C@H]([C@@H](C)O)NC(=O)[C@H](Cc2c[nH]c3ccccc23)NC(=O)[C@H](CO)NC(=O)[C@H](CCC(=O)O)NC(=O)[C@H](C)NC(=O)[C@@H]2CCCN2C1=O
B3: Ac-S(Galnac)-JWQPC*PWESWTFC*WDPGGGK-NH2 (peptide)
peptide: Ac-S(αGalNAc)[AEEA]WQPCPWESWTFCWDPGGGK-NH2
modifications: disulfide 6-14
SMILES: CC(=O)N[C@H]1[C@@H](OC[C@H](NC(C)=O)C(=O)NCCOCCOCC(=O)N[C@@H](Cc2c[nH]c3ccccc23)C(=O)N[C@@H](CCC(N)=O)C(=O)N2CCC[C@H]2C(=O)N[C@H]2CSSC[C@@H](C(=O)N[C@@H](Cc3c[nH]c4ccccc34)C(=O)N[C@@H](CC(=O)O)C(=O)N3CCC[C@H]3C(=O)NCC(=O)NCC(=O)NCC(=O)N[C@@H](CCCCN)C(N)=O)NC(=O)[C@H](Cc3ccccc3)NC(=O)[C@H]([C@@H](C)O)NC(=O)[C@H](Cc3c[nH]c4ccccc34)NC(=O)[C@H](CO)NC(=O)[C@H](CCC(=O)O)NC(=O)[C@H](Cc3c[nH]c4ccccc34)NC(=O)[C@@H]3CCCN3C2=O)O[C@H](CO)[C@H](O)[C@@H]1O

Molecular target: T1, fibrin
Assay: fluorescence polarization, direct binding (n = 2)

Kd	Binder
280 nM	H-RGWQPCPWESWTFCWDPGGGK(CF5)-NH2 (disulfide 6-14) [RGWQPC*PWESWTFC*WDPGGGK(CF5)-NH2]
450 nM	Ac-SGSG[AEEA]WQPCPWESWTFCWDPGGGK(CF5)-NH2 (disulfide 9-17) [Ac-SGSGJWQPC*PWESWTFC*WDPGGGK(CF5)-NH2]
760 nM	Ac-KGKGKGWQPCPWESWTFCWDPGGGK(CF5)-NH2 (disulfide 10-18) [Ac-KGKGKGWQPC*PWESWTFC*WDPGGGK(CF5)-NH2]
290 nM	Ac-GGRGWQPCPWESWTFCWDPGGGK(CF5)-NH2 (disulfide 8-16) [Ac-GGRGWQPC*PWESWTFC*WDPGGGK(CF5)-NH2]
470 nM	Ac-SGSGSGSGWQPCPWESWTFCWDPGGGK(CF5)-NH2 (disulfide 12-20) [Ac-SGSGSGSGWQPC*PWESWTFC*WDPGGGK(CF5)-NH2]
530 nM	Ac-SGSGSGSGWQPCPAESWTFCWDPGGGK(CF5)-NH2 (disulfide 12-20) [Ac-SGSGSGSGWQPC*PAESWTFC*WDPGGGK(CF5)-NH2]
710 nM	Ac-KKGWQPCPWESWTFCWDPGGGK(CF5)-NH2 (disulfide 7-15) [Ac-KKGWQPC*PWESWTFC*WDPGGGK(CF5)-NH2]
80 nM	Ac-RWQPCPAESWT[Cha]CWDPGGGK(CF5)-NH2 (disulfide 5-13) [Ac-RWQPC*PAESWT-Cha-C*WDPGGGK(CF5)-NH2]
220 nM	Ac-RRGGWQPCPAESWTFCWDPGGGK(CF5)-NH2 (disulfide 8-16) [Ac-RRGGWQPC*PAESWTFC*WDPGGGK(CF5)-NH2]
250 nM	Ac-GPPGWQPCPWESWTFCWDPGGGK(CF5)-NH2 (disulfide 8-16) [Ac-GPPGWQPC*PWESWTFC*WDPGGGK(CF5)-NH2]
170 nM	Ac-WQPCPAESWT[Cha]CWDPGGGK(CF5)-NH2 (disulfide 4-12) [Ac-WQPC*PAESWT-Cha-C*WDPGGGK(CF5)-NH2]
310 nM	Ac-GPPGWQPCPAESWTFCWDPGGGK(CF5)-NH2 (disulfide 8-16) [Ac-GPPGWQPC*PAESWTFC*WDPGGGK(CF5)-NH2]
520 nM	Ac-GGRGWQPCPAESWTFCWDPGGGK(CF5)-NH2 (disulfide 8-16) [Ac-GGRGWQPC*PAESWTFC*WDPGGGK(CF5)-NH2]
500 nM	Ac-S(αGalNAc)WQPCPWESWTFCWDPGGGK(CF5)-NH2 (disulfide 5-13) [Ac-S(Galnac)-WQPC*PWESWTFC*WDPGGGK(CF5)-NH2]
230 nM	Ac-GWQPCPWESWTFCWDPGGGK(CF5)-NH2 (disulfide 5-13) [Ac-GWQPC*PWESWTFC*WDPGGGK(CF5)-NH2]
570 nM	Ac-SGSG[AEEA]WQPCPAESWTFCWDPGGGK(CF5)-NH2 (disulfide 9-17) [Ac-SGSGJWQPC*PAESWTFC*WDPGGGK(CF5)-NH2]

Molecular target: T1, fibrin
Assay: competition fluorescence polarization assay (n = 2)

Rel IC50	Binder
0.559 ratio to Ac-Seq000-GGGK-NH2	Ac-S(αGalNAc)WQPCPWESWTFCWDPGGGK-NH2 (disulfide 5-13) [Ac-S(Galnac)-WQPC*PWESWTFC*WDPGGGK-NH2]
0.125 ratio to Ac-Seq000-GGGK-NH2	B1
0.714 ratio to Ac-Seq000-GGGK-NH2	Ac-SGSG[AEEA]WQPCPWESWTFCWDPGGGK-NH2 (disulfide 9-17) [Ac-SGSGJWQPC*PWESWTFC*WDPGGGK-NH2]
0.357 ratio to Ac-Seq000-GGGK-NH2	Ac-KKGWQPCPWESWTFCWDPGGGK-NH2 (disulfide 7-15) [Ac-KKGWQPC*PWESWTFC*WDPGGGK-NH2]
0.37 ratio to Ac-Seq000-GGGK-NH2	Ac-GGRGWQPCPWESWTFCWDPGGGK-NH2 (disulfide 8-16) [Ac-GGRGWQPC*PWESWTFC*WDPGGGK-NH2]
0.595 ratio to Ac-Seq000-GGGK-NH2	Ac-KGKGKGWQPCPWESWTFCWDPGGGK-NH2 (disulfide 10-18) [Ac-KGKGKGWQPC*PWESWTFC*WDPGGGK-NH2]
0.235 ratio to Ac-Seq000-GGGK-NH2	Ac-GPPGWQPCPWESWTFCWDPGGGK-NH2 (disulfide 8-16) [Ac-GPPGWQPC*PWESWTFC*WDPGGGK-NH2]
0.527 ratio to Ac-Seq000-GGGK-NH2	Ac-SGSGSGSGWQPCPWESWTFCWDPGGGK-NH2 (disulfide 12-20) [Ac-SGSGSGSGWQPC*PWESWTFC*WDPGGGK-NH2]
0.47 ratio to Ac-Seq000-GGGK-NH2	H-RWQPCPWESWTFCWDPGGGK-NH2 (disulfide 5-13) [RWQPC*PWESWTFC*WDPGGGK-NH2]
0.875 ratio to Ac-Seq000-GGGK-NH2	B2
0.55 ratio to Ac-Seq000-GGGK-NH2	Ac-WQPC[Hyp]WESWTFCWDPGGGK-NH2 (disulfide 4-12) [Ac-WQPC*-Hypt4-WESWTFC*WDPGGGK-NH2]
0.511 ratio to Ac-Seq000-GGGK-NH2	H-RGWQPCPWESWTFCWDPGGGK-NH2 (disulfide 6-14) [RGWQPC*PWESWTFC*WDPGGGK-NH2]
1.15 ratio to Ac-Seq000-GGGK-NH2	B3
